Measured values taken from patent US20150147274A1 (CANCER RESEARCH TECHNOLOGY, published 2015).
Changes are numbered by the printed parent chain.

B1: 109_G10 (scFv)
scFv: QMQLVQSGAEVKKPGAPVKVSCKVSGYTFTDYYMHWVQQAPGKGLEWMGLVDPEDGETIYAEKFQGRVTITADTSTDTAYMELSSLRSEDTAVYYCATDATTPYWFPRVWGQGTLVTVSSLEGGGGSGGGGSGGGASDIQMTQSPSSLSASVGDRVTITCQASQDISNYLNWYQQKPGRAPKVLIYDASNLETGVPSRFSGSGSGTEFTLTISNLRPDDFATYYCQQGDSFPLTFGGGTKVEIK
notes: not shown: 6xHis/tri-FLAG tags
B2: 111_C6 (scFv)
scFv: B1 scFv with R108Q, V109H
notes: as for B1
B3: 112_G4 (scFv)
scFv: B1 scFv with F106G, P107A, R108Q, V109S
notes: as for B1
B4: 111_D11 (scFv)
scFv: B1 scFv with F106G, P107M, R108M, V109R
notes: as for B1
B5: 112_G7 (scFv)
scFv: B1 scFv with R108Q, V109T
notes: as for B1
B6: 110_A5 (scFv)
scFv: B1 scFv with F106Y, R108F
notes: as for B1
B7: 111_E5 (scFv)
scFv: B1 scFv with F106G, P107M, R108C, V109E
notes: as for B1
B8: 112_G6 (scFv)
scFv: B1 scFv with R108F
notes: as for B1
B9: 109_H11 (scFv)
scFv: B1 scFv with F106G, P107M, R108A, V109Q
notes: as for B1
B10: 111_D5 (scFv)
scFv: B1 scFv with R108A
notes: as for B1
B11: 111_E10 (scFv)
scFv: B1 scFv with F106Y, R108Y, V109A
notes: as for B1
B12: 109_H3 (scFv)
scFv: B1 scFv with F106G, P107M, R108Q, V109Q
notes: as for B1
B13: 109_H8 (scFv)
scFv: B1 scFv with V109S
notes: as for B1
B14: 111_D4 (scFv)
scFv: B1 scFv with F106G, P107M, R108W
notes: as for B1
B15: 112_G5 (scFv)
scFv: B1 scFv with F106G, P107M, V109S
notes: as for B1
B16: 110_B6 (scFv)
scFv: B1 scFv with A100T, T101D, T102L, P103K, W105Y, F106G, P107M, R108D
notes: as for B1
B17: 110_B8 (scFv)
scFv: B1 scFv with F106G, P107M, R108M, V109L
notes: as for B1
B18: 109_H9 (scFv)
scFv: B1 scFv with F106G, P107M, R108T, V109K
notes: as for B1
B19: 111_C5 (scFv)
scFv: B1 scFv with R108K
notes: as for B1
B20: 111_E7 (scFv)
scFv: B1 scFv with F106G, P107M, R108M, V109M
notes: as for B1
B21: 111_C12 (scFv)
scFv: B1 scFv with V109Y
notes: as for B1
B22: 111_C10 (scFv)
scFv: B1 scFv with F106T, R108E, V109I
notes: as for B1
B23: 112_F12 (scFv)
scFv: B1 scFv with F106G, P107M, R108Q, V109W
notes: as for B1
B24: 111_E4 (scFv)
scFv: B1 scFv with F106G, P107I, R108E
notes: as for B1
B25: 110_B9 (scFv)
scFv: B1 scFv with F106S, R108I, V109W
notes: as for B1
B26: 110_A2 (scFv)
scFv: B1 scFv with F106G, P107M, R108S, V109T
notes: as for B1
B27: 111_C1 (scFv)
scFv: B1 scFv with F106S, R108W, V109A
notes: as for B1
B28: 111_D1 (scFv)
scFv: B1 scFv with F106G, P107M, R108D, V109E
notes: as for B1
B29: 111_E8 (scFv)
scFv: B1 scFv with R108Y, V109R
notes: as for B1
B30: 110_B7 (scFv)
scFv: B1 scFv with A100G, T101L, T102W, P103M, W105Y, F106G, P107M, R108D
notes: as for B1
B31: 109_H7 (scFv)
scFv: B1 scFv with V109W
notes: as for B1
B32: 109_H6 (scFv)
scFv: B1 scFv with V109T
notes: as for B1
B33: 110_A8 (scFv)
scFv: B1 scFv with F106C, P107M, R108A, V109I
notes: as for B1
B34: 112_G3 (scFv)
scFv: B1 scFv with F106G, P107M, R108S, V109A
notes: as for B1
B35: 112_F8 (scFv)
scFv: B1 scFv with F106T, R108F, V109L
notes: as for B1
B36: 111_D2 (scFv)
scFv: B1 scFv with R108W, V109I
notes: as for B1
B37: 112_F1 (scFv)
scFv: B1 scFv with F106G, P107M, R108A, V109R
notes: as for B1
B38: 111_B12 (scFv)
scFv: B1 scFv with F106G, P107A, R108Q, V109A
notes: as for B1
B39: 109_G12 (scFv)
scFv: B1 scFv with F106G, P107M, R108A, V109A
notes: as for B1
B40: 111_E12 (scFv)
scFv: B1 scFv with F106S, R108W
notes: as for B1
B41: 111_D7 (scFv)
scFv: B1 scFv with R108Y, V109A
notes: as for B1
B42: 111_E11 (scFv)
scFv: B1 scFv with F106G, P107M, V109E
notes: as for B1
B43: 109_G11 (scFv)
scFv: B1 scFv with F106W, P107T, R108A, V109N
notes: as for B1
B44: 110_B5 (scFv)
scFv: B1 scFv with F106G, P107M, R108M, V109S
notes: as for B1
B45: 111_C3 (scFv)
scFv: B1 scFv with F106G, P107M, R108Q, V109G
notes: as for B1
B46: 110_A3 (scFv)
scFv: B1 scFv with F106G, P107V, R108Q
notes: as for B1
B47: 111_D3 (scFv)
scFv: B1 scFv with F106G, P107A, R108A, V109L
notes: as for B1
B48: 112_F11 (scFv)
scFv: B1 scFv with F106G, P107M, R108M, V109Q
notes: as for B1
B49: 109_H1 (scFv)
scFv: B1 scFv with F106G, P107V, R108Q, V109K
notes: as for B1
B50: 111_E6 (scFv)
scFv: B1 scFv with F106G, P107M, R108A
notes: as for B1
B51: 109_H5 (scFv)
scFv: B1 scFv with F106G, P107A, R108Q, V109E
notes: as for B1
B52: 110_B3 (scFv)
scFv: B1 scFv with A100M, T101E, T102L, P103N, W105Y, F106G, P107M, R108D
notes: as for B1
B53: 111_D8 (scFv)
scFv: B1 scFv with F106G, P107M, R108S, V109W
notes: as for B1
B54: 110_A9 (scFv)
scFv: B1 scFv with F106G, P107M, R108A, V109G
notes: as for B1
B55: 111_C9 (scFv)
scFv: B1 scFv with F106G, P107M, R108M, V109A
notes: as for B1
B56: 112_F4 (scFv)
scFv: B1 scFv with F106G, P107M, R108A, V109D
notes: as for B1
B57: 111_C8 (scFv)
scFv: B1 scFv with R108V
notes: as for B1
B58: 111_E3 (scFv)
scFv: B1 scFv with R108V, V109E
notes: as for B1

Molecular target: T1, MET928 (cMET protein derived from construct 25-928) (human, UniProt P08581 25-928)
T1 construct: MET ectodomain, residues 1-24 are the leader; produced in Lec 8 cells; background text says the ectodomain is furin-cleaved into alpha (25-307) and beta chains; biotinylated form used in selections; also called MET928 extracellular domain; Met extracellular domain
Test: ELISA, soluble scFv

T1 sequence (P08581 25-928): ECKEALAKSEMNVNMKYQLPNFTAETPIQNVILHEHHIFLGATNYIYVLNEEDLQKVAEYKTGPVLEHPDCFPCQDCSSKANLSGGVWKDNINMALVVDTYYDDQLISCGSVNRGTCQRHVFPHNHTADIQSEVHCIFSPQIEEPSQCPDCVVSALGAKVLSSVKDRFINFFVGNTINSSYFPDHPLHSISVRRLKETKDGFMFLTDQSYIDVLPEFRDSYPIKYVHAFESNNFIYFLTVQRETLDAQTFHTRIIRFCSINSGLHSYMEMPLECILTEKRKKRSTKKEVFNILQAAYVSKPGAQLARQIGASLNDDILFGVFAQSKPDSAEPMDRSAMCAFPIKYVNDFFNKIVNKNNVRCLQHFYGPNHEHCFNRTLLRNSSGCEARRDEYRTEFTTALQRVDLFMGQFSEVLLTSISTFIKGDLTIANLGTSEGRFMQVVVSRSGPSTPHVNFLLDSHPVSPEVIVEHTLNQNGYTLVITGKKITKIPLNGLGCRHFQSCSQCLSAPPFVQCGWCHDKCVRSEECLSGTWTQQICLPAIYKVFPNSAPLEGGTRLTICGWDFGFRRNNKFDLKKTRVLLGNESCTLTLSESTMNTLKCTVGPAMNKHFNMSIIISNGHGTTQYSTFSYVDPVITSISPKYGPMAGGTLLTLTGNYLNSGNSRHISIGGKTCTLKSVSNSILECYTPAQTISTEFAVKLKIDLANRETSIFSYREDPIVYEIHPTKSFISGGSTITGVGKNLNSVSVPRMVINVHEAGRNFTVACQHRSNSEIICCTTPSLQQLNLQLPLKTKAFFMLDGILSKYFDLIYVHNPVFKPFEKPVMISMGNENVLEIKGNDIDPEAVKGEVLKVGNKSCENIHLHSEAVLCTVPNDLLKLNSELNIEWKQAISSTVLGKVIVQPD

Binding result, binds:
B1
B2
B3
B4
B5
B6
B7
B8
B9
B10
B11
B12
B13
B14
B15
B16
B17
B18
B19
B20
B21
B22
B23
B24
B25
B26
B27
B28
B29
B30
B31
B32
B33
B34
B35
B36
B37
B38
B39
B40
B41
B42
B43
B44
B45
B46
B47
B48
B49
B50
B51
B52
B53
B54
B55
B56
B57
B58
